Results as given in patent US20050106160A1.
Values joined by “and” are separate entries in the source; they are usually repeats but may differ in a detail not shown here. Equal entries are not always repeated. Where two headings read alike, the source gives them in different places.

What was measured:
[1] = biological target: cell surface associated CCR5 (CF2Th-CCR5 cells) (UniProt P51681); assay: flow cytometry on CF2Th-CCR5 cells, anti-CCR5 mAb 5C7, no ligand, background subtracted
[2] = biological target: cell surface associated CCR5 (CF2Th-CCR5 cells) (UniProt P51681); assay: flow cytometry on CF2Th-CCR5 cells, anti-CCR5 mAb 5C7, cells preincubated with sCD4 (1 µg/ml)
[3] = biological target: cell surface associated CCR5 (CF2Th-CCR5 cells) (UniProt P51681); assay: flow cytometry on CF2Th-CCR5 cells, anti-CCR5 mAb 5C7, cells preincubated with gp140 + sCD4
[4] = biological target: cell surface associated CCR5 (CF2Th-CCR5 cells) (UniProt P51681)

Sequence of UniProt P51681 (P51681 whole entry): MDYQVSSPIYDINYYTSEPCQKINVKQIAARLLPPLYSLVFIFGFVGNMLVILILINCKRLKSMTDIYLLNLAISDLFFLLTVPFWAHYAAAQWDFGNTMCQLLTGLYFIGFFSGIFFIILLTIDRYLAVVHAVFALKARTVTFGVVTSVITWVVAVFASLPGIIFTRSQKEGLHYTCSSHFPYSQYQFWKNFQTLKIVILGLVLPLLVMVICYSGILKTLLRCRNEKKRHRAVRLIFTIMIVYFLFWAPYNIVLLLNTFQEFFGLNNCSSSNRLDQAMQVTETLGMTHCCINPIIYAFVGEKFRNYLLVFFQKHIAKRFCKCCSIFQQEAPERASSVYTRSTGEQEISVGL

Substance	geometric mean of fluorescence intensity (arbitrary units) [1]	geometric mean of fluorescence intensity (arbitrary units) [2]	geometric mean of fluorescence intensity (arbitrary units) [3]	geometric mean of fluorescence intensity (arbitrary units) [4]
anti-CCR5 mAb 5C7 (antibody)	1100	1300	370	1200 and 1100
two-domain soluble CD4 (sCD4) (from UniProt P01730 26-208) (receptor)				20
